Test results: patent US20110097739A1

Biological target: HCEC protein fraction
Assay: ELISA on the coated protein fraction, lysate treated or not with neuraminidase

reduction of binding after neuraminidase treatment of the lysate: 50%
Substance: FC5 llama single-domain antibody (sdAb), expressed in fusion with His5 and c-myc tags (VHH)
